Reference: PMC6868016

What was measured:
[1] = biological target: ACP-GluA1ΔNTD (ACP-GluA1 with the N-terminal domain deleted) (mouse); experiment: single-molecule fluorescence tracking (TIRF), colocalization durations, single colour; living HEK293 cells, plasma membrane, 33 ms per frame, colocalization = two spots within 240 nm; duration histograms fitted with a single exponential, lifetimes corrected for photobleaching; 37 °C (monomer references ACP-TM and Halo7-TM at 22 °C); GluA1 and GluA2 homodimers also with TARP2-mGFP overexpression (lifetimes not significantly altered)
[2] = biological target: ACP-GluA1ΔNTD (ACP-GluA1 with the N-terminal domain deleted) (mouse); experiment: single-molecule fluorescence imaging (TIRF), distribution of spot signal intensities; living HEK293 cells, plasma membrane, various number densities of expressed molecules; intensity histograms of the initial ten frames fitted with the sum of four (references: two) lognormal functions for monomers, dimers, trimers, tetramers; incidental colocalizations not told apart from true assemblies; also with 0.1 mM AMPA or 10 mM L-glutamate (fractions not altered)
[3] = biological target: ACP-GluA1 (GluA1 tagged with the acyl carrier protein at its N-terminus) (mouse); experiment: single-molecule fluorescence tracking (TIRF), colocalization durations, single colour; living HEK293 cells, plasma membrane, 33 ms per frame, colocalization = two spots within 240 nm; duration histograms fitted with a single exponential, lifetimes corrected for photobleaching; 37 °C (monomer references ACP-TM and Halo7-TM at 22 °C); GluA1 and GluA2 homodimers also with TARP2-mGFP overexpression (lifetimes not significantly altered)
[4] = biological target: Halo7-GluA2 (GluA2 tagged with Halo7 at its N-terminus, pcDNA3.1B) (UniProt P23819); experiment: single-molecule fluorescence tracking (TIRF), colocalization durations, simultaneous two colours; living HEK293 cells, plasma membrane, ATTO594 on ACP tags and rhodamine110 on Halo7 tags, colocalization = within 240 nm; lifetimes corrected for photobleaching; 37 °C (ACP-TM with Halo7-TM at 22 °C)
[5] = biological target: Halo7-GluA1 (GluA1 tagged with Halo7 at its N-terminus, pcDNA3.1B) (mouse); experiment: as above
Target sequence in this assay (P23818 19-907): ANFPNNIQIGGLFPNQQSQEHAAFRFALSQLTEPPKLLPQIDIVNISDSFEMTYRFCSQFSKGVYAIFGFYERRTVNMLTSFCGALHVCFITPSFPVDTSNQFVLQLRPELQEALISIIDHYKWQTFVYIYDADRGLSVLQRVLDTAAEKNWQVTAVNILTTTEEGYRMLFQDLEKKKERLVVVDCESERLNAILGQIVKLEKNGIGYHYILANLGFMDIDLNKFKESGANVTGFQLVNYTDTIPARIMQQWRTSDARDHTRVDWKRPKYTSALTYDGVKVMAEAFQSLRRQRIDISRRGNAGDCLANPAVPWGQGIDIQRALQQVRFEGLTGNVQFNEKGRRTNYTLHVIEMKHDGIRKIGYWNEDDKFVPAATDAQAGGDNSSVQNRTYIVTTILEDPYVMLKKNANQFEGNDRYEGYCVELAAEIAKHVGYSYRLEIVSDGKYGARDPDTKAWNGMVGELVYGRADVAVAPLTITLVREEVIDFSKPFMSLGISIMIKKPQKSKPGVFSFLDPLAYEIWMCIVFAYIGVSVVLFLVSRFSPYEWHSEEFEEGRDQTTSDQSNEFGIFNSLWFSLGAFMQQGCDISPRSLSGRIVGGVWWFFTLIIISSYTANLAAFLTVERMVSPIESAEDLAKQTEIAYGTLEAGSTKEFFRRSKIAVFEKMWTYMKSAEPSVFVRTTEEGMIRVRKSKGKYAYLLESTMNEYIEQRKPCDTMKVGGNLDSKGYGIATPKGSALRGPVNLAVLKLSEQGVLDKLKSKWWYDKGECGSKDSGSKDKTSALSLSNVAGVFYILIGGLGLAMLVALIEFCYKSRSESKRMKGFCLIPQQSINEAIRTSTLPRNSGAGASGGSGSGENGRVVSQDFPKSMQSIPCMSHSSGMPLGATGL

[6] = biological target: Halo7-GluA1 (GluA1 tagged with Halo7 at its N-terminus, pcDNA3.1B) (mouse); experiment: single-molecule fluorescence tracking (TIRF), colocalization durations, single colour; living HEK293 cells, plasma membrane, 33 ms per frame, colocalization = two spots within 240 nm; duration histograms fitted with a single exponential, lifetimes corrected for photobleaching; 37 °C (monomer references ACP-TM and Halo7-TM at 22 °C); GluA1 and GluA2 homodimers also with TARP2-mGFP overexpression (lifetimes not significantly altered)

Chain of ACP-GluA1 (GluA1 tagged with the acyl carrier protein at its N-terminus) (receptor) (P23818 19-907): as above
Chain of ACP-GluA1ΔNTD (ACP-GluA1 with the N-terminal domain deleted) (domain or fragment) (P23818 378-907, stated change not applied): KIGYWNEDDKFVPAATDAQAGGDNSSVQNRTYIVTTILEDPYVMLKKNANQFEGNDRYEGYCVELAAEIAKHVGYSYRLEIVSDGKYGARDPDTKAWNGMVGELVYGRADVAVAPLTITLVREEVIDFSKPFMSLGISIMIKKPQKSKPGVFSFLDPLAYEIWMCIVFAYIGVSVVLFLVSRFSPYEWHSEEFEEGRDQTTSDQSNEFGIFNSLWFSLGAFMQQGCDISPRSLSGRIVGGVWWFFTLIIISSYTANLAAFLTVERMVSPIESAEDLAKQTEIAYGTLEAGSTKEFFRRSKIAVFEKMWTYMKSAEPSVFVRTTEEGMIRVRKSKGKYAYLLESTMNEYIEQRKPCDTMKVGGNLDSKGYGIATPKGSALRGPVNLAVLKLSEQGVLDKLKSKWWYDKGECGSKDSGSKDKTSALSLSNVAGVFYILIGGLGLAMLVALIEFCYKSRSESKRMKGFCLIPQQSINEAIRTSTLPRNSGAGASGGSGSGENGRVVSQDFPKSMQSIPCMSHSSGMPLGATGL
Chain of Halo7-GluA2 (GluA2 tagged with Halo7 at its N-terminus, pcDNA3.1B) (P23819 25-883): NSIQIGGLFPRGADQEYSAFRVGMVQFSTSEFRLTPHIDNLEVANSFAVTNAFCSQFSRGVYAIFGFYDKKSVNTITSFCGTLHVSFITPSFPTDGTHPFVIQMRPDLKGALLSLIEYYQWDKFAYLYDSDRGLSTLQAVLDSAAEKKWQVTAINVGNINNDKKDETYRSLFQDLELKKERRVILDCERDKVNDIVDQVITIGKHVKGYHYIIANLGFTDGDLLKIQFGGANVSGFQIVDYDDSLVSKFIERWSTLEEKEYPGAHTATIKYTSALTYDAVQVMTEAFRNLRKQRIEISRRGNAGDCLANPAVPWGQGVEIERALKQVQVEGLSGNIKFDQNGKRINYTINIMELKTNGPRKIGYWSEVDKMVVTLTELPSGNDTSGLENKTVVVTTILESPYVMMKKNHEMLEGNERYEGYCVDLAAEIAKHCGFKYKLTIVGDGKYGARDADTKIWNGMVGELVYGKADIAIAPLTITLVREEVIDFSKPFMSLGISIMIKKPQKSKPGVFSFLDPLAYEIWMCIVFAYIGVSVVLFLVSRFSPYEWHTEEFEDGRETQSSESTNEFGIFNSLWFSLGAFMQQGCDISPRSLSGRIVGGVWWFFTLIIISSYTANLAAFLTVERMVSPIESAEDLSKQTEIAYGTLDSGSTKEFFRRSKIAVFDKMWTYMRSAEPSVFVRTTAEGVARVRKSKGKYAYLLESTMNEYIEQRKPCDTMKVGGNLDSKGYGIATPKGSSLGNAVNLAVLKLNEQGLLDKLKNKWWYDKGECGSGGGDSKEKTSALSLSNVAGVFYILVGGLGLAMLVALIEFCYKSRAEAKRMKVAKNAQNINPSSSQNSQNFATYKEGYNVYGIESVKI
Chain of Halo7-GluA1 (GluA1 tagged with Halo7 at its N-terminus, pcDNA3.1B) (receptor) (P23818 19-907): as the sequence (P23818 19-907) above

Substance “ACP-GluA1ΔNTD (ACP-GluA1 with the N-terminal domain deleted) (domain or fragment)” has a colocalization lifetime, homodimer [1] of 100 ms, a colocalization lifetime, homotetramer [1] of 41 ms and a tetramer fraction, fold smaller than that of full-length GluA1 (at 1–1.2 copies μm^−2) [2] of 3 to 4 fold.

In the case of “ACP-GluA1 (GluA1 tagged with the acyl carrier protein at its N-terminus) (receptor)”, the colocalization lifetime, homodimer [3] is reported as 164 ms, the colocalization lifetime, homotetramer [3] is reported as 98 ms and the colocalization lifetime, homotrimer [3] is reported as 117 ms. The colocalization lifetime, GluA1/A2 heterodimer (average of the two tag combinations) [4] was 334 ms, the colocalization lifetime, GluA1/A2 heterotetramer (average of the two tag combinations) [4] was 208 ms and the exponential lifetime, GluA1/A2 heterodimer [4] was 335 ms. The colocalization lifetime, homodimer [5] was 177 ms.

“Halo7-GluA1 (GluA1 tagged with Halo7 at its N-terminus, pcDNA3.1B) (receptor)” showed a colocalization lifetime, homodimer [6] of 164 ms.
